Measured values reported in patent US20260285954.

Target: Aβ oligomers (Aβ42) (human), P05067
Experiment: SPR
Settings: remark: other sources report otherwise

Aβ oligomers (Aβ42) (human), P05067, sequence (P05067 672-713): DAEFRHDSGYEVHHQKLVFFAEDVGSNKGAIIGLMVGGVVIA

B1: 3F (protein)
chain: MAEVQLLESGGGLVQPGGSLRLSCAASGFTFSSYAMSWVRQAPGKGLEWVSGISNLGLTTGYADSVKGRFTISRDNSKNTLYLQMNSLRAEDTAVYYCAKTTSRFDYWGQGTLVTVSSGGGGSGGGGSGGGGSTDIQMTQSPSSLSASVGDRVTITCRASQSISSYLNWYQQKPGKAPKLLIYKASYLQSGVPSRFSGSGSGTDFTLTISSLQPEDFATYYCQNSAVRPVTFGQGTKVEIKR
  Kd: 0.847 nM
